Here are results for 2 substances from publication PMC3285579.

In assay [1] the target is MBP-WSP-1(334 aa-608 aa) (C. elegans). Briefly: pull-down; MBP pull-down with competitors (Figure 6B): MBP-WSP-1 on amylose resin; soluble extracts of GST-NCK-1 F.L., GST-UNC-34 F.L. and His-VAB-1 as load; band intensities quantified from at least two independent blots with Image J; wash 20 mM Tris-Cl pH 7.5, 200 mM NaCl, 1 mM EDTA, 1 mM DTT.
Assay [2] has as its target GST-NCK-1 F.L., full length NCK-1 (1 aa-397 aa) (C. elegans). The assay is described as above.

Chain of MBP-WSP-1(334 aa-608 aa) (C. elegans) (main, as listed by the source): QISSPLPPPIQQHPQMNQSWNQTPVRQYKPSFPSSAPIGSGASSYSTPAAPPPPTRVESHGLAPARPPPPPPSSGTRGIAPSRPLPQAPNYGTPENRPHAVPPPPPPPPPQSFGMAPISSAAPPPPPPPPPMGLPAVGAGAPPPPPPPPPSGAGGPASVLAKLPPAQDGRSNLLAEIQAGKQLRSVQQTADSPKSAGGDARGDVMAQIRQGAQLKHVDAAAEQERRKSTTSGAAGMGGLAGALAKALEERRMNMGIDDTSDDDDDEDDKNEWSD

For “GST-NCK-1 F.L., full length NCK-1 (1 aa-397 aa) (natural protein)”, the relative intensity of NCK-1 pulled down by MBP-WSP-1 with UNC-34 and VAB-1 added (NCK-1 alone = 1.0) in assay [1] was determined as 1.3.
For “GST-UNC-34 F.L., full length UNC-34 (1 aa-454) (natural protein)”, the relative intensity of NCK-1 pulled down by MBP-WSP-1 with UNC-34 added (without UNC-34 = 1.0) in assay [2] worked out at 0.3.
